Test results as given in IntAct's records for PubMed 31515488.

B1: Keratin-associated protein 3-2 (Homo sapiens), Q9BYR7 (parent)
chain: MDCCASRSCSVPTGPATTICSSDKSCRCGVCLPSTCPHTVWLLEPICCDNCPPPCHIPQPCVPTCFLLNSCQPTPGLETLNLTTFTQPCCEPCLPRGC
partner: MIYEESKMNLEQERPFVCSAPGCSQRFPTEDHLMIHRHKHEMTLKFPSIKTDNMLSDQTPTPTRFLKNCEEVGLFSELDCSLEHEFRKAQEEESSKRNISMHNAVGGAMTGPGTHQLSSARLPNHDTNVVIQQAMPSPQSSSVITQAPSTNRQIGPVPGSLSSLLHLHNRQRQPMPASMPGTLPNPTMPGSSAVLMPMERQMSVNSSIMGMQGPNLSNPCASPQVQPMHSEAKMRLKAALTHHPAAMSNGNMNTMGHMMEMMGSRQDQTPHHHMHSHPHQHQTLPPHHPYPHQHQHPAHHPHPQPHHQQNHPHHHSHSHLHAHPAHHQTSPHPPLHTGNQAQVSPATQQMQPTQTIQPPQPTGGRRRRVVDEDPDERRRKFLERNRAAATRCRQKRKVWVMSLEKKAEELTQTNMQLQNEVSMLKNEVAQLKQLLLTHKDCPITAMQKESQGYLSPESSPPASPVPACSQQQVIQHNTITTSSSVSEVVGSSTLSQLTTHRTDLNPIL
B2: Asc-type amino acid transporter 1 (Homo sapiens), Q9NS82 (parent)
chain: MAGHTQQPSGRGNPRPAPSPSPVPGTVPGASERVALKKEIGLLSACTIIIGNIIGSGIFISPKGVLEHSGSVGLALFVWVLGGGVTALGSLCYAELGVAIPKSGGDYAYVTEIFGGLAGFLLLWSAVLIMYPTSLAVISMTFSNYVLQPVFPNCIPPTTASRVLSMACLMLLTWVNSSSVRWATRIQDMFTGGKLLALSLIIGVGLLQIFQGHFEELRPSNAFAFWMTPSVGHLALAFLQGSFAFSGWNFLNYVTEEMVDARKNLPRAIFISIPLVTFVYTFTNIAYFTAMSPQELLSSNAVAVTFGEKLLGYFSWVMPVSVALSTFGGINGYLFTYSRLCFSGAREGHLPSLLAMIHVRHCTPIPALLVCCGATAVIMLVGDTYTLINYVSFINYLCYGVTILGLLLLRWRRPALHRPIKVNLLIPVAYLVFWAFLLVFSFISEPMVCGVGVIIILTGVPIFFLGVFWRSKPKCVHRLTESMTHWGQELCFVVYPQDAPEEEENGPCPPSLLPATDKPSKPQ
partner: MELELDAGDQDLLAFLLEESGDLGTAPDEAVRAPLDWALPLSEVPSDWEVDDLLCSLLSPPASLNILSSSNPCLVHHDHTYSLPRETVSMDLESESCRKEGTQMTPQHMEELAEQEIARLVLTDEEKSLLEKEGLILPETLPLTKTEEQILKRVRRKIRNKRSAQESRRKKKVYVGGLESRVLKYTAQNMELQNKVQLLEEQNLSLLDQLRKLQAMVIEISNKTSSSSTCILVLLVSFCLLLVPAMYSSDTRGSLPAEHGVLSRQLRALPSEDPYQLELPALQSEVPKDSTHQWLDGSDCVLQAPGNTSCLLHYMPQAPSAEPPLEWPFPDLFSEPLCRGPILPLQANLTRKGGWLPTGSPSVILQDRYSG
B3: Tuftelin-interacting protein 11 (Homo sapiens), Q9UBB9 (parent)
chain: MSLSHLYRDGEGRIDDDDDERENFEITDWDLQNEFNPNRQRHWQTKEEATYGVWAERDSDDERPSFGGKRARDYSAPVNFISAGLKKGAAEEAELEDSDDEEKPVKQDDFPKDFGPRKLKTGGNFKPSQKGFAGGTKSFMDFGSWERHTKGIGQKLLQKMGYVPGRGLGKNAQGIINPIEAKQRKGKGAVGAYGSERTTQSMQDFPVVDSEEEAEEEFQKELSQWRKDPSGSKKKPKYSYKTVEELKAKGRISKKLTAPQKELSQVKVIDMTGREQKVYYSYSQISHKHNVPDDGLPLQSQQLPQSGKEAKAPGFALPELEHNLQLLIDLTEQEIIQNDRQLQYERDMVVNLFHELEKMTEVLDHEERVISNLSKVLEMVEECERRMQPDCSNPLTLDECARIFETLQDKYYEEYRMSDRVDLAVAIVYPLMKEYFKEWDPLKDCTYGTEIISKWKSLLENDQLLSHGGQDLSADAFHRLIWEVWMPFVRNIVTQWQPRNCDPMVDFLDSWVHIIPVWILDNILDQLIFPKLQKEVENWNPLTDTVPIHSWIHPWLPLMQARLEPLYSPIRSKLSSALQKWHPSDSSAKLILQPWKDVFTPGSWEAFMVKNIVPKLGMCLGELVINPHQQHMDAFYWVIDWEGMISVSSLVGLLEKHFFPKWLQVLCSWLSNSPNYEEITKWYLGWKSMFSDQVLAHPSVKDKFNEALDIMNRAVSSNVGAYMQPGARENIAYLTHTERRKDFQYEAMQERREAENMAQRGIGVAASSVPMNFKDLIETKAEEHNIVFMPVIGKRHEGKQLYTFGRIVIYIDRGVVFVQGEKTWVPTSLQSLIDMAK
partner: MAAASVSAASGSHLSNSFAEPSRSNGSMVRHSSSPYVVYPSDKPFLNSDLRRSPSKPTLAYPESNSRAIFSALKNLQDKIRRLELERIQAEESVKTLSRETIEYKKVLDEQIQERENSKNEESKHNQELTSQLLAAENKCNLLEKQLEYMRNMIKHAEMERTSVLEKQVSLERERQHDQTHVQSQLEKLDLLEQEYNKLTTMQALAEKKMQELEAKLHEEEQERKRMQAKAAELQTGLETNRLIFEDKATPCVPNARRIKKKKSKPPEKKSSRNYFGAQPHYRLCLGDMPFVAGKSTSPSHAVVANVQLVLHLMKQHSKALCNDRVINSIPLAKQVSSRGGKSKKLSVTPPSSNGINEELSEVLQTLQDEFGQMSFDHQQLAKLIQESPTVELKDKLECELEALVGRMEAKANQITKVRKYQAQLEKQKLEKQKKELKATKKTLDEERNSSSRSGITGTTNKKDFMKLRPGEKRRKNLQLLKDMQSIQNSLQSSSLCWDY
B4: Homeobox protein PKNOX1 (Homo sapiens), P55347 (parent)
chain: MMATQTLSIDSYQDGQQMQVVTELKTEQDPNCSEPDAEGVSPPPVESQTPMDVDKQAIYRHPLFPLLALLFEKCEQSTQGSEGTTSASFDVDIENFVRKQEKEGKPFFCEDPETDNLMVKAIQVLRIHLLELEKVNELCKDFCSRYIACLKTKMNSETLLSGEPGSPYSPVQSQQIQSAITGTISPQGIVVPASALQQGNVAMATVAGGTVYQPVTVVTPQGQVVTQTLSPGTIRIQNSQLQLQLNQDLSILHQDDGSSKNKRGVLPKHATNVMRSWLFQHIGHPYPTEDEKKQIAAQTNLTLLQVNNWFINARRRILQPMLDSSCSETPKTKKKTAQNRPVQRFWPDSIASGVAQPPPSELTMSEGAVVTITTPVNMNVDSLQSLSSDGATLAVQQVMMAGQSEDESVDSTEEDAGALAPAHISGLVLENSDSLQ
partner: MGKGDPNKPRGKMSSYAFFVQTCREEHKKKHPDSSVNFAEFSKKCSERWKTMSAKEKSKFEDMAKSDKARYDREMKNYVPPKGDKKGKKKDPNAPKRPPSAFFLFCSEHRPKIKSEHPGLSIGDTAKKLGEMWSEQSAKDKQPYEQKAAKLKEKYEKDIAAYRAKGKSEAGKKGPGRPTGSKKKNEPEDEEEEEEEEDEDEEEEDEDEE
B5: Tektin-4 (Homo sapiens), Q8WW24 (parent)
chain: MAQTVPPCELPCKEYDVARNTGAYTSSGLATASFRTSKYLLEEWFQNCYARYHQAFADRDQSERQRHESQQLATETQALAQRTQQDSTRTVGERLQDTHSWKSELQREMEALAAETNLLLAQKQRLERALDATEVPFSITTDNLQCRERREHPNLVRDHVETELLKEAELIRNIQELLKRTIMQAVSQIRLNREHKETCEMDWSDKMEAYNIDETCGRHHSQSTEVQAHPYSTTFQESASTPETRAKFTQDNLCRAQRERLASANLRVLVDCILRDTSEDLRLQCDAVNLAFGRRCEELEDARYKLHHHLHKTLREITDQEHNVAALKQAIKDKEAPLHVAQTRLYLRSHRPNMELCRDAAQFRLLSEVEELNMSLTALREKLLEAEQSLRNLEDIHMSLEKDIAAMTNSLFIDRQKCMAHRTRYPTILQLAGYQ

Variants of: B1
Conditions: with creb5_human CREB5, Q02930

effect of a mutation on the interaction	Variant
with no effect	S8G
with no effect	R27C

Variants of: B2
Conditions: with creb3_human CREB3, O43889

effect of a mutation on the interaction	Variant
with no effect	R267H
with no effect	R413Q

Variants of: B3
Conditions: with cep57_human CEP57, Q86XR8

effect of a mutation on the interaction	Variant
with no effect	S688L
with no effect	R8Q

Variants of: B4
Conditions: with hmgb2_human HMGB2, P26583

effect of a mutation on the interaction	Variant
with no effect	E103D
with no effect	V265I

Variants of: B4
Conditions: with hmgb2_human HMGB2, P26583
Remark: another data set of the same source

effect of a mutation on the interaction	Variant
with no effect	V265I

Variants of: B5
Conditions: with trip6_human TRIP6, Q15654
Chain of trip6_human TRIP6, Q15654 (Q15654 whole entry): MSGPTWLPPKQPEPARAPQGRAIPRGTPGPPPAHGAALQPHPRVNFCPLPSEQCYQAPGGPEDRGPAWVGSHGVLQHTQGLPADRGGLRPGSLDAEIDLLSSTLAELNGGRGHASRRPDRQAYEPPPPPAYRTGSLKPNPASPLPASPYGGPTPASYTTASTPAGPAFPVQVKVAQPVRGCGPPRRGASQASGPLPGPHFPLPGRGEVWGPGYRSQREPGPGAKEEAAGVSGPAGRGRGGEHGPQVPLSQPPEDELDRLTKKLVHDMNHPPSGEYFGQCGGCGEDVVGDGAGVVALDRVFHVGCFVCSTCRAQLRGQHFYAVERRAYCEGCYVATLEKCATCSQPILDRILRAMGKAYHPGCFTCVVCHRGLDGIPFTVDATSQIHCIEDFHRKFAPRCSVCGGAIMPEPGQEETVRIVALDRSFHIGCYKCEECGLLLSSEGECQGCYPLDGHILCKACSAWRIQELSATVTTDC

effect of a mutation on the interaction	Variant
with no effect	T83M
with no effect	M374V
with no effect	C272S
with no effect	R82C
with no effect	R255C

Variants of: B5
Conditions: with maga4_human MAGEA4, P43358
Chain of maga4_human MAGEA4, P43358 (P43358 whole entry): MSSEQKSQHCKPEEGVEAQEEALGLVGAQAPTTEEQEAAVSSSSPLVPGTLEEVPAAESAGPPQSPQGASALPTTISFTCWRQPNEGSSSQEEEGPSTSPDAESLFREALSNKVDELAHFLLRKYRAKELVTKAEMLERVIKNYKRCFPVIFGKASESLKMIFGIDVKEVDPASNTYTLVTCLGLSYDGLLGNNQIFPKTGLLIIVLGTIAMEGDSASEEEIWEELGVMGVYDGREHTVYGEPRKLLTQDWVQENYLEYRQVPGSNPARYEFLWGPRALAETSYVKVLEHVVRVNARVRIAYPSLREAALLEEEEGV

effect of a mutation on the interaction	Variant
with no effect	T83M
with no effect	M374V
with no effect	C272S
with no effect	R82C
with no effect	R255C

Variants of: B5
Conditions: with atg5_human ATG5, Q9H1Y0
Chain of atg5_human ATG5, Q9H1Y0 (Q9H1Y0 whole entry): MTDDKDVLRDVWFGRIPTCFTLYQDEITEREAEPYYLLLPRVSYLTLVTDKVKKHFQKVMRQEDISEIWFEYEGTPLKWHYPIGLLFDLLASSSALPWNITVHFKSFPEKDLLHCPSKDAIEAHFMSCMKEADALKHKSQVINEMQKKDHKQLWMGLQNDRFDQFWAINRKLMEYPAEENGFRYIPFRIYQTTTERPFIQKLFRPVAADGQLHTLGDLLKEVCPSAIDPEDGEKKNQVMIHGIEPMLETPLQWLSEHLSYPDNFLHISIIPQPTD

effect of a mutation on the interaction	Variant
with no effect	A80V
with no effect	M374V
with no effect	M374T
with no effect	R82C
with no effect	R255C
